According to PMC11845725:

Assays:
[1] = target: TGM6 domain 3 (TGM6-D3) (H. polygyrus); experiment: ITC; competition: 150 μM TGFBR2 in the syringe into 15 μM TGM6-D3 in the cell with 0.0 or 6.0 μM TGM1-D3; 25 °C; ITC buffer pH 7.4; global fit to a simple competitive binding model; constants are for binding in the absence of competitor
[2] = target: TGM1-D3 S242R (H. polygyrus); experiment: ITC; binder in the syringe, target in the sample cell, concentrations as in the tables; 35 °C; 25 mM HEPES, 150 mM NaCl, 0.05% NaN3, pH 7.4; fit to a simple 1:1 binding model
[3] = target: TGM6 domain 3 (TGM6-D3) (H. polygyrus); experiment: as above
[4] = target: TGM1-D3 K241Q S242R G243R T244G (QRRG) (H. polygyrus); experiment: as above
[5] = target: TGM6-D3 R82A (H. polygyrus); experiment: as above
[6] = target: TGM6-D3 R82S (H. polygyrus); experiment: as above
[7] = target: TGM6-D3 Q81K R82S R83G G84T (KSGT) (H. polygyrus); experiment: as above
[8] = target: TGM1 domain 3 (TGM1-D3) (H. polygyrus); experiment: as above
[9] = target: TGM1-D3 K254P N255R (PR) (H. polygyrus); experiment: as above
[10] = target: TGM6-D3 Y80F (H. polygyrus); experiment: ITC; binder in the syringe, target in the sample cell, concentrations as in the tables; 25 °C; 25 mM HEPES, 150 mM NaCl, 0.05% NaN3, pH 7.4; fit to a simple 1:1 binding model
[11] = target: TGM6-D3 Y80A (H. polygyrus); experiment: as above
[12] = target: TGM6 domain 3 (TGM6-D3) (H. polygyrus); experiment: as above
[13] = target: H. polygyrus TGF-β Mimic 6 (TGM6) (H. polygyrus); experiment: as above
[14] = target: TGM6-D3 Y93A (H. polygyrus); experiment: as above
[15] = target: TGM6-D3 I78A (H. polygyrus); experiment: as above
[16] = target: TGM6-D3 R38A (H. polygyrus); experiment: as above
[17] = target: TGM6-D3 P94K R95N (KN) (H. polygyrus); experiment: as above
[18] = target: TGM6-D3 R95A (H. polygyrus); experiment: as above
[19] = target: TGFBR2 extracellular domain (TGF-β type II receptor) (UniProt P37173); experiment: ITC; TGM6-D3, TGM1-D3 and TGFBR2 variants, simple binding model, 1–2 replicates per variant; syringe and cell proteins in Supplementary Table 6; 25 mM HEPES, 150 mM NaCl, 0.05% NaN3, pH 7.4
[20] = target: TGFBR2 extracellular domain (TGF-β type II receptor) (UniProt P37173)
[21] = target: TGFBR2 D55A (human); experiment: ITC; binder in the syringe, target in the sample cell, concentrations as in the tables; 35 °C; 25 mM HEPES, 150 mM NaCl, 0.05% NaN3, pH 7.4; fit to a simple 1:1 binding model
[22] = target: TGFBR2 E142A (human); experiment: as above
[23] = target: TGFBR2 I76A (human); experiment: ITC; binder in the syringe, target in the sample cell, concentrations as in the tables; 25 °C; 25 mM HEPES, 150 mM NaCl, 0.05% NaN3, pH 7.4; fit to a simple 1:1 binding model
[24] = target: TGFBR2 D141A (human); experiment: as above
[25] = target: TGF-β type II receptor extracellular domain (TGFBR2) (human); experiment: as above
[26] = target: TGM1 domains 4 and 5 (TGM1-D45) (H. polygyrus); experiment: ITC; binder in the syringe, target in the sample cell, concentrations as in the tables; 35 °C; 25 mM HEPES, 150 mM NaCl, 0.05% NaN3, pH 7.4; fit to a simple 1:1 binding model

TGF-β type II receptor extracellular domain (TGFBR2)
Kd [1]: 0.189 µM | Kd [2]: 0.38 µM | stoichiometry N [2]: 0.7 sites | Kd [3]: 0.437 µM | stoichiometry N [3]: 1.01 sites | Kd [4]: 0.17 µM | stoichiometry N [4]: 1.1 sites | Kd [5]: 4.23 µM | stoichiometry N [5]: 0.93 sites | Kd [6]: 3.09 µM | stoichiometry N [6]: 1.12 sites | Kd [7]: 4.49 µM | stoichiometry N [7]: 0.82 sites | Kd [8]: 1.53 µM | stoichiometry N [8]: 0.72 sites | Kd [9]: 2.62 µM | stoichiometry N [9]: 0.91 sites | Kd [10]: 1.25 µM | stoichiometry N [10]: 0.67 sites | Kd [11]: 48.4 µM | stoichiometry N [11]: 0.33 sites | Kd [12]: 0.36 µM | stoichiometry N [12]: 0.87 sites | Kd [13]: 0.222 µM | stoichiometry N [13]: 1.16 sites | Kd [14]: 39 µM | stoichiometry N [14]: 0.17 sites | Kd [15]: 5.56 µM | stoichiometry N [15]: 0.71 sites | Kd [16]: 8.03 µM | stoichiometry N [16]: 0.85 sites | Kd [17]: 0.27 µM | stoichiometry N [17]: 0.9 sites | Kd [18]: 3.82 µM | stoichiometry N [18]: 1 sites

TGM1-D3 S242R (domain or fragment)
fold gain of binding affinity against wild type [19]: 4 fold

TGM6 (TGF-β mimic 6), full-length (natural protein)
IC50 of inhibition of the TGF-β1- or TGM1-stimulated CAGA luciferase reporter in NIH-3T3 fibroblasts by increasing concentrations of TGM6 [20]: 50 pM | IC50 of inhibition of the TGF-β1- or TGM1-stimulated reporter in MFB-F11 fibroblasts by increasing concentrations of TGM6 [20]: 0.0002 µM

TGM6 domain 3 (TGM6-D3) (domain or fragment)
Kd [21]: 2.25 µM | stoichiometry N [21]: 0.52 sites | Kd [22]: 3.17 µM | stoichiometry N [22]: 0.56 sites | Kd [23]: 7.35 µM | stoichiometry N [23]: 0.69 sites | Kd [24]: 0.94 µM | stoichiometry N [24]: 0.75 sites | Kd [25]: 0.35 µM | stoichiometry N [25]: 0.68 sites

TGM6-D3 I78A (domain or fragment)
fold decrease in binding affinity against wild type [19]: 15.4 fold

TGM6-D3 R38A (domain or fragment)
fold decrease in binding affinity against wild type [19]: 22 fold

TGM6-D3 R82A (domain or fragment)
fold decrease in binding affinity against wild type [19]: 11 to 12 fold

TGM6-D3 R82S (domain or fragment)
fold loss of binding affinity against wild type [19]: 8.6 fold

TGM6-D3 R95A (domain or fragment)
fold decrease in binding affinity against wild type [19]: 11.6 fold

TGM6-D3 Y80A (domain or fragment)
fold decrease in binding affinity against wild type [19]: 134 fold

TGM6-D3 Y80F (domain or fragment)
fold decrease in binding affinity against wild type [19]: 3.5 fold

TGM6-D3 Y93A (domain or fragment)
fold decrease in binding affinity against wild type [19]: 108 fold

mouse CD44 (mCD44) (receptor)
Kd [26]: 0.126 µM | stoichiometry N [26]: 0.82 sites
